Experimental findings from article PMC8225329, “Molecular and Mechanistic Characterization of PddB, the First PLP-Independent 2,4-Diaminobutyric Acid Racemase Discovered in an Actinobacterial D-Amino Acid Homopolymer Biosynthesis” (Frontiers in Microbiology, 2021) are described below.

Substrate in data set [1]: NCC[C@@H](N)C(=O)O
Briefly: initial-velocity racemase assay, FDLA (Marfey) LC-MS; Lineweaver-Burk. It is filed as biochemical, Streptoalloteichus hindustanus. The following applies: D to L direction, no cofactor, 100 mM TAPS-NaOH pH 8.5, 30°C. From the text: (§1) initial-velocity racemase assay, FDLA (Marfey) LC-MS; Lineweaver-Burk on PddB

Substrate in data set [2]: NCC[C@H](N)C(=O)O
The description is as above. It is filed as biochemical, Streptoalloteichus hindustanus. Conditions: L to D direction, no cofactor, 100 mM TAPS-NaOH pH 8.5, 30°C.
Description: as §1

B1: PddB (Streptoalloteichus hindustanus) (protein)
chain: MSDQHNQVLDSELTAFRERVVEGVRFDTLRFCIMHGDGNVIMIVDERLSGLAAESVTSTLARELCQSFTVPKVDGVAFVRPTVSPLRMTYFERDGTHAQMCGNALRCLTRYGVERGYLSTEDSVETDDGVKRVSFVDGEARAALGPGREYQQVRDNWYFAFSGLPHLVVVMDDLDAFNAVNVRVDGAKLAHDEELCRQLNHPEGLHVNYLHRGEDHIAIRTFEVGVEDETKACGTGVAATGYIAHRAWGMPYPLRVRVPGGVMTAEDGEHGLTISGVTGYLFTEDETPVANVFQRSVL
notes: full length, C-terminal His6 tag, pET-21b(+), E. coli Rosetta 2 (DE3), Ni-NTA; 33 kDa; monomer; C-terminal domain given as 163-295
On to B1, for which, in data set [1], the Km amounted to 6.1 ± 1.0 mM, the Vmax is 136 µmol/min/mg, the Vmax/Km worked out at 22200 µL/min/mg and the kcat stood at 75 ± 5 s⁻¹. Besides, in data set [1], the kcat/Km was determined as 12200 M⁻¹ s⁻¹. In data set [2], the Km stood at 10.1 ± 1.9 mM, the maximum rate (Vmax) came out at 210 µmol/min/mg, the Vmax/Km is 20800 µL/min/mg and the kcat came out at 116 ± 12 s⁻¹. The kcat/Km in data set [2] was determined as 11400 M⁻¹ s⁻¹.

A word on the Km: it is the substrate concentration at which the rate is half of its maximum. What is called Vmax is the top rate of the reaction or transport when substrate is in excess. Broadly, the kcat is the maximal rate divided by the concentration of active sites. In general, kcat/Km refers to the second-order rate constant that governs catalysis at low substrate concentration.
